1 molecule from paper PMC7308506 (2020) can be followed below.

Test [1] addresses kallikrein. Nature of the test: SPR. Background: SPR reads the build-up and loss of mass on a sensor chip optically.
Test [2] concerns the target T1, activated factor XII.
T1 chain 1: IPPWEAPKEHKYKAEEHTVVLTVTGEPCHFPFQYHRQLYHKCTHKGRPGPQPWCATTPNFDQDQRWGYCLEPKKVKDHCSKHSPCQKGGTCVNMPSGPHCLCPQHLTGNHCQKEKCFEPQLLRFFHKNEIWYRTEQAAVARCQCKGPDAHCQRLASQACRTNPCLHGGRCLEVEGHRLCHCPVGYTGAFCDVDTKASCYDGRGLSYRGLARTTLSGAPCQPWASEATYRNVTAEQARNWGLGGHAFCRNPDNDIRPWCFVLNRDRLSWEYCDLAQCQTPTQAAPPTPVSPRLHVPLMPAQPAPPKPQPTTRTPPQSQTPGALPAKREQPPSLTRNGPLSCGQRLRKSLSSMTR
T1 chain 2: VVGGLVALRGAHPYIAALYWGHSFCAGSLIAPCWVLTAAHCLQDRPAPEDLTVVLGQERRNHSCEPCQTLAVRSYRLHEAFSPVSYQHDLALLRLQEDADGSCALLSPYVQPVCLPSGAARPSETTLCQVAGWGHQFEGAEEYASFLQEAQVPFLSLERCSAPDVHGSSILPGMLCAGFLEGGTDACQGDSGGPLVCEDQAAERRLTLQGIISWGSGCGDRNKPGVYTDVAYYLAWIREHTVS
Nature of the test: SPR.

B1: LCTX-F2 (peptide)
chain: GAKACTPRLHDCSHDRHSCCRGELFKDVCYCFYPEGEDKTEVCSCQQPKSHKYIEKVVDKTKTLVG
For orientation: Kd means the constant that tells how readily two partners part at equilibrium. A higher Kd goes with lower affinity. On to B1, for which the Kd came to 4.6 nM in test [1] and 7.2 nM in test [2].
